Measurements from the supplement of paper PMC9942255.

Tested on: Bacillus subtilis DB104 (SP-AmyQ fusion secretion)
Assay: AmyQ secretion efficiency, weighted average sort bin (1 = best secretion, 10 = worst) (bin number (weighted average, 1-10)); higher = lower secretion efficiency
How it was run: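 Designed signal peptides were fused to mature AmyQ and expressed from the amyE locus in B. subtilis DB104, and this library was loaded at about 0.3 cells per ~65 nL alginate bead together with fluorescein-starch. After about 13 h of growth at room temperature and nile red staining, occupied beads were split into 10 equally populated bins by green/red fluorescence ratio using large-particle flow cytometry. Amplicons from every bin were Illumina-sequenced. The secretion score is the average bin number weighted by read frequency and normalised to beads per bin, excluding low-abundance sequences.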

## MLCVMMLLFSAIASFPVSAQNKDQ
  AmyQ secretion efficiency: 6.98

## MLCVMMLLFSAIASFPVSAQQKDQ
  AmyQ secretion efficiency: 6.18

## MLCVMMLLFSAIASFPVSAQRKDQ
  AmyQ secretion efficiency: 6.75

## MLCVMMLLFSAIASFPVSAQSKDQ
  AmyQ secretion efficiency: 5.6

## MLCVMMLLFSAIASFPVSAQTKDQ
  AmyQ secretion efficiency: 6.25

## MLCVMMLLFSAIASFPVSAQVKDQ
  AmyQ secretion efficiency: 5.88

## MLCVMMLLFSAIASFPVSAQYKDQ
  AmyQ secretion efficiency: 6.57

## MLCVMMLLFSAIASFPVSASATAQAKDQ
  AmyQ secretion efficiency: 5.05

## MLCVMMLLFSAIASFPVSCQAKDQ
  AmyQ secretion efficiency: 5.97

## MLCVMMLLFSAIASFPVSDQAKDQ
  AmyQ secretion efficiency: 5.98

## MLCVMMLLFSAIASFPVSEQAKDQ
  AmyQ secretion efficiency: 4.62

## MLCVMMLLFSAIASFPVSFQAKDQ
  AmyQ secretion efficiency: 8.56

## MLCVMMLLFSAIASFPVSFTFPAFATAQAKDQ
  AmyQ secretion efficiency: 7.71

## MLCVMMLLFSAIASFPVSGQAKDQ
  AmyQ secretion efficiency: 5.05

## MLCVMMLLFSAIASFPVSIQAKDQ
  AmyQ secretion efficiency: 6.18

## MLCVMMLLFSAIASFPVSKQAKDQ
  AmyQ secretion efficiency: 7.19

## MLCVMMLLFSAIASFPVSLQAKDQ
  AmyQ secretion efficiency: 5.46

## MLCVMMLLFSAIASFPVSMQAKDQ
  AmyQ secretion efficiency: 5.6

## MLCVMMLLFSAIASFPVSNQAKDQ
  AmyQ secretion efficiency: 5.37

## MLCVMMLLFSAIASFPVSPQAKDQ
  AmyQ secretion efficiency: 6.39

## MLCVMMLLFSAIASFPVSRQAKDQ
  AmyQ secretion efficiency: 7.53

## MLCVMMLLFSAIASFPVSSQAKDQ
  AmyQ secretion efficiency: 5.36

## MLCVMMLLFSAIASFPVSTQAKDQ
  AmyQ secretion efficiency: 5.3

## MLCVMMLLFSAIASFPVSVQAKDQ
  AmyQ secretion efficiency: 3.83

## MLCVMMLLFSAIASFPVSWQAKDQ
  AmyQ secretion efficiency: 6.99

## MLCVMMLLFSAIASFPVSYQAKDQ
  AmyQ secretion efficiency: 6.1

## MLCVMMLLFSAIASTPVSAQAKDQ
  AmyQ secretion efficiency: 5.3

## MLCVMMLLFSAIATFVVVAQAKDQ
  AmyQ secretion efficiency: 6.49

## MLCVMMLLFSAIAVSFPVSAQAKDQ
  AmyQ secretion efficiency: 5.09

## MLCVMMLLFSSFPVSAQAKDQ
  AmyQ secretion efficiency: 5.51

## MLFIFVITCVMAASLTLGSLLPAGYATAKED
  AmyQ secretion efficiency: 4.43

## MLFKKWMVGLLAGCLAAGGFSYNAFATEN
  AmyQ secretion efficiency: 4.2

## MLFLLVSLRVWMVFLMNWVTPDRKTAAAAVY
  AmyQ secretion efficiency: 6.62

## MLFNTSFVSSLFISSAVLLSILLPSGQAHAQSA
  AmyQ secretion efficiency: 2.42

## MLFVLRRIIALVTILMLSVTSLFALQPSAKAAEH
  AmyQ secretion efficiency: 1.93

## MLGIRLLTIYIMLLGLIAWFPGAAQAEEK
  AmyQ secretion efficiency: 2.38

## MLGKIALTLCPAIVGSLLFFTAPASAHVS
  AmyQ secretion efficiency: 2.47

## MLGMGWMVGLLAGCLAAGGFSYNAFATEN
  AmyQ secretion efficiency: 6.54

## MLGSTSFVSSLFISSAVLLSILLPSGQAHAQSA
  AmyQ secretion efficiency: 2.1

## MLIRKRRNFKRFIAAFLVLALMISLVPADVLAKST
  AmyQ secretion efficiency: 1.85

## MLKFLKSNFRFLLAAALGISLLASSNFIKASND
  AmyQ secretion efficiency: 3.52

## MLKGIIRFLLVSFVLFFALSTGITGVQAAPA
  AmyQ secretion efficiency: 2.22

## MLKKIALILCIAIVFFLLFFSAPASAHVS
  AmyQ secretion efficiency: 3.76

## MLKKIALTLCPAIVAPASAHVS
  AmyQ secretion efficiency: 6.21

## MLKKIALTLCPAIVGSLLAPASAHVS
  AmyQ secretion efficiency: 4.32

## MLKKIALTLCPAIVGSLLFFTAGASAHVS
  AmyQ secretion efficiency: 3.12

## MLKKIALTLCPAIVGSLLFFTAIASAHVS
  AmyQ secretion efficiency: 3.46

## MLKKIALTLCPAIVGSLLFFTAPAPVAVASFAAAASAHVS
  AmyQ secretion efficiency: 5.09

## MLKKIALTLCPAIVGSLLFFTAPASADEE
  AmyQ secretion efficiency: 3.58

## MLKKIALTLCPAIVGSLLFFTAPASAHEE
  AmyQ secretion efficiency: 2.4

## MLKKIALTLCPAIVGSLLFFTAPASAHKK
  AmyQ secretion efficiency: 1.72

## MLKKIALTLCPAIVGSLLFFTAPASAHVE
  AmyQ secretion efficiency: 2.48

## MLKKIALTLCPAIVGSLLFFTAPASAHVK
  AmyQ secretion efficiency: 2.44

## MLKKIALTLCPAIVGSLLFFTAPASARKR
  AmyQ secretion efficiency: 6.88

## MLKKIALTLCPAIVGSLLFFTAPASDHVS
  AmyQ secretion efficiency: 5.33

## MLKKIALTLCPAIVGSLLFFTAPASEHVS
  AmyQ secretion efficiency: 6.03

## MLKKIALTLCPAIVGSLLFFTAPASFHVS
  AmyQ secretion efficiency: 7.41

## MLKKIALTLCPAIVGSLLFFTAPASGHVS
  AmyQ secretion efficiency: 2.72

## MLKKIALTLCPAIVGSLLFFTAPASKHVS
  AmyQ secretion efficiency: 5.12

## MLKKIALTLCPAIVGSLLFFTAPASMHVS
  AmyQ secretion efficiency: 4.09

## MLKKIALTLCPAIVGSLLFFTAPASPHVS
  AmyQ secretion efficiency: 8.85

## MLKKIALTLCPAIVGSLLFFTAPASQHVS
  AmyQ secretion efficiency: 5.33

## MLKKIALTLCPAIVGSLLFFTAPASRHVS
  AmyQ secretion efficiency: 6.05

## MLKKIALTLCPAIVGSLLFFTAPASSHVS
  AmyQ secretion efficiency: 4.06

## MLKKIALTLCPAIVGSLLFFTAPASTHVS
  AmyQ secretion efficiency: 5.85

## MLKKIALTLCPAIVGSLLFFTAPASVHVS
  AmyQ secretion efficiency: 6.13

## MLKKIALTLCPAIVGSLLFFTAPCSAHVS
  AmyQ secretion efficiency: 3.32

## MLKKIALTLCPAIVGSLLFFTAPDSAHVS
  AmyQ secretion efficiency: 6.1

## MLKKIALTLCPAIVGSLLFFTAPESAHVS
  AmyQ secretion efficiency: 5.94

## MLKKIALTLCPAIVGSLLFFTAPFSAHVS
  AmyQ secretion efficiency: 5.46

## MLKKIALTLCPAIVGSLLFFTAPHSAHVS
  AmyQ secretion efficiency: 5.59

## MLKKIALTLCPAIVGSLLFFTAPKSAHVS
  AmyQ secretion efficiency: 5.03

## MLKKIALTLCPAIVGSLLFFTAPLSAHVS
  AmyQ secretion efficiency: 3.94

## MLKKIALTLCPAIVGSLLFFTAPNSAHVS
  AmyQ secretion efficiency: 6.42

## MLKKIALTLCPAIVGSLLFFTAPPFSASAHVS
  AmyQ secretion efficiency: 4.02

## MLKKIALTLCPAIVGSLLFFTAPPSAHVS
  AmyQ secretion efficiency: 6.86

## MLKKIALTLCPAIVGSLLFFTAPQSAHVS
  AmyQ secretion efficiency: 5.63

## MLKKIALTLCPAIVGSLLFFTAPRSAHVS
  AmyQ secretion efficiency: 5.22

## MLKKIALTLCPAIVGSLLFFTAPSSAHVS
  AmyQ secretion efficiency: 3.86

## MLKKIALTLCPAIVGSLLFFTAPTSAHVS
  AmyQ secretion efficiency: 3.63

## MLKKIALTLCPAIVGSLLFFTAPWSAHVS
  AmyQ secretion efficiency: 4.74

## MLKKIALTLCPAIVGSLLFFTDEDASAHVS
  AmyQ secretion efficiency: 4.47

## MLKKIALTLCPAIVGSLLFFTDEDDEEASAHVS
  AmyQ secretion efficiency: 5.14

## MLKKIALTLCPAIVGSLLFFTGPASAHVS
  AmyQ secretion efficiency: 2.54

## MLKKIALTLCPAIVGSLLFFTKPQASAHVS
  AmyQ secretion efficiency: 3.85

## MLKKIALTLCPAIVGSLLFFTKRKKRKASAHVS
  AmyQ secretion efficiency: 7.45

## MLKKIALTLCPAIVGSLLFFTRKKASAHVS
  AmyQ secretion efficiency: 7.46

## MLKKIALTLCPAIVGSLLFFTVAPASAHVS
  AmyQ secretion efficiency: 3.73

## MLKKIALTLCPAIVGSLLFFTVILITAPASAHVS
  AmyQ secretion efficiency: 3.87

## MLKKIARRKCKKRVGSLLFFTAPASAHVS
  AmyQ secretion efficiency: 7.33

## MLKKIGYQGCPRSYGSLLFFTAPASAHVS
  AmyQ secretion efficiency: 7.75

## MLKKIMNLNMMMALTLCPAIVGSLLFFTAPASAHVS
  AmyQ secretion efficiency: 2.77

## MLKKKKTQYQILVGSTLGAFSFSSDASAKHV
  AmyQ secretion efficiency: 5.99

## MLKKKWMLMVGLLAGCLAAGGFSYNAFATEN
  AmyQ secretion efficiency: 4.46

## MLKKKWMTGGTKRCLAAGGFSYNAFATEN
  AmyQ secretion efficiency: 7.54

## MLKKKWMTRGLAGCLAAGGFSYNAFATEN
  AmyQ secretion efficiency: 6.77

## MLKKKWMVFLLAICLAAFGFSYNAFATEN
  AmyQ secretion efficiency: 3.29

## MLKKKWMVGLLAGCLAAGDDEYNAFATEN
  AmyQ secretion efficiency: 4.98

## MLKKKWMVGLLAGCLAAGEDDEEDAFATEN
  AmyQ secretion efficiency: 5.44

## MLKKKWMVGLLAGCLAAGEEPYNAFATEN
  AmyQ secretion efficiency: 4.04

## MLKKKWMVGLLAGCLAAGFFGYNAFATEN
  AmyQ secretion efficiency: 6.85

## MLKKKWMVGLLAGCLAAGGAFATEN
  AmyQ secretion efficiency: 6.32

## MLKKKWMVGLLAGCLAAGGFSYNAFADEE
  AmyQ secretion efficiency: 6.94

## MLKKKWMVGLLAGCLAAGGFSYNAFAKRK
  AmyQ secretion efficiency: 5.47

## MLKKKWMVGLLAGCLAAGGFSYNAFATEE
  AmyQ secretion efficiency: 3.49

## MLKKKWMVGLLAGCLAAGGFSYNAFATKK
  AmyQ secretion efficiency: 4.27

## MLKKKWMVGLLAGCLAAGGFSYNAFATPR
  AmyQ secretion efficiency: 3.48

## MLKKKWMVGLLAGCLAAGGFSYNAFATSD
  AmyQ secretion efficiency: 4.28

## MLKKKWMVGLLAGCLAAGGFSYNAFCTEN
  AmyQ secretion efficiency: 6.56

## MLKKKWMVGLLAGCLAAGGFSYNAFDTEN
  AmyQ secretion efficiency: 6.19

## MLKKKWMVGLLAGCLAAGGFSYNAFETEN
  AmyQ secretion efficiency: 6.72

## MLKKKWMVGLLAGCLAAGGFSYNAFFTEN
  AmyQ secretion efficiency: 6.5

## MLKKKWMVGLLAGCLAAGGFSYNAFHTEN
  AmyQ secretion efficiency: 6.18

## MLKKKWMVGLLAGCLAAGGFSYNAFITEN
  AmyQ secretion efficiency: 6.43

## MLKKKWMVGLLAGCLAAGGFSYNAFKTEN
  AmyQ secretion efficiency: 5.95

## MLKKKWMVGLLAGCLAAGGFSYNAFLTEN
  AmyQ secretion efficiency: 6.4

## MLKKKWMVGLLAGCLAAGGFSYNAFMTEN
  AmyQ secretion efficiency: 6.25

## MLKKKWMVGLLAGCLAAGGFSYNAFNTEN
  AmyQ secretion efficiency: 6.56

## MLKKKWMVGLLAGCLAAGGFSYNAFPTEN
  AmyQ secretion efficiency: 5.71

## MLKKKWMVGLLAGCLAAGGFSYNAFQTEN
  AmyQ secretion efficiency: 6.95

## MLKKKWMVGLLAGCLAAGGFSYNAFRTEN
  AmyQ secretion efficiency: 5.68

## MLKKKWMVGLLAGCLAAGGFSYNAFSTEN
  AmyQ secretion efficiency: 6.06

## MLKKKWMVGLLAGCLAAGGFSYNAFTTEN
  AmyQ secretion efficiency: 6.95

## MLKKKWMVGLLAGCLAAGGFSYNAFVTEN
  AmyQ secretion efficiency: 7.21

## MLKKKWMVGLLAGCLAAGGFSYNAFWTEN
  AmyQ secretion efficiency: 6.56

## MLKKKWMVGLLAGCLAAGGFSYNAFYTEN
  AmyQ secretion efficiency: 6.38

## MLKKKWMVGLLAGCLAAGGFSYNCFATEN
  AmyQ secretion efficiency: 3.91

## MLKKKWMVGLLAGCLAAGGFSYNDFATEN
  AmyQ secretion efficiency: 5.83

## MLKKKWMVGLLAGCLAAGGFSYNEFATEN
  AmyQ secretion efficiency: 6.42

## MLKKKWMVGLLAGCLAAGGFSYNFFATEN
  AmyQ secretion efficiency: 6.27
